Source: patent US20210292412A1 (CHENGDU CONMED BIOSCIENCES, published 2021)

Target: T1, human CD47 on CCRF-CEM cells (CD47 positive cells) (human, UniProt Q08722 19-323)
T1 construct: whole, on cells; also called hCD47-expressing tumor cells CCRF-CEM; CD47 receptor on the cell surface
Assay: CD47-SIRPα blocking experiment, FIG. 5 legend

binding result: binds
B1: hybridoma positive clone 10B8 (antibody, V domains shown)
VH: QIQLQQSGPDLVKPGASVKISCKASGYTFTDYYIHWMKQKPGQGLEWIGWIYPGSGNTKYNEKFKGKATLTVDTSSSTPYMQLSSLTSEDTAVYFCARRREDSFDYWGQVTTLTVSS
VL: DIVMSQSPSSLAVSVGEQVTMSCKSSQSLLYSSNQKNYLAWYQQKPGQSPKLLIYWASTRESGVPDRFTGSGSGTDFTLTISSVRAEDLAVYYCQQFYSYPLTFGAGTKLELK
notes: Mouse hybridoma supernatant in the assay; Variable regions are printed for subclone 10B8-B8; also called Clone 10B8-B8
